Results on eight substances are retold here after patent US10702592B2, “Peptides and combination of peptides for use in immunotherapy against NHL and other cancers” (Immatics Biotechnologies GmbH, priority 2016, dated 2020).

One experiment has as its target HLA-A*02:01 (Homo sapiens, UniProt P04439, D140Y/D185E/D98H/E176V/E277Q/G131W/G231S/I119V/I121R/I166T/I218V/L300P/L318F/N151K/N90K/P208A/P217A/Q86G/Q94H/R138H/R169H/T345S). As to the kind of experiment: MHC binding assay (UV-ligand exchange, beta2m ELISA). As to conditions: binding to HLA-A*02:01, UV-ligand exchange. An outline of the steps: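 UV-cleavable peptide in HLA monomers exchanged for test peptide by UV irradiation; exchange yield measured by streptavidin-capture ELISA with HRP anti-β2m (TMB, 450 nm) on 100-fold diluted complexes. Quantified against refolded HLA-A*02:01/MLA-001 standards (15-500 ng/ml).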
On the technique in general: In an ELISA, binding on a coated surface is turned into a signal by an enzyme label.

The subject of a further experiment is CD8+ T cells. The experiment is described as follows: In vitro T-cell priming immunogenicity assay (aAPC with pMHC and anti-CD28, multimer staining). In kind it is cell-based, human. As to conditions: HLA-A*02 restricted peptides; percentage of positive wells and donors (among evaluable). From the text: In order to obtain information regarding the immunogenicity of the TUMAPs of the present invention, the inventors performed investigations using an in vitro T-cell priming assay based on repeated stimulations of CD8+ T cells with artificial antigen presenting cells (aAPCs) loaded with peptide/MHC complexes and anti-CD28 antibody.
In order to perform in vitro stimulations by artificial antigen presenting cells loaded with peptide-MHC complex (pMHC) and anti-CD28 antibody, the inventors first isolated CD8+ T cells from fresh HLA-A*02 leukapheresis products via positive selection using CD8 microbeads (Miltenyi Biotec, Bergisch-Gladbach, Germany) of healthy donors obtained from the University clinics Mannheim, Germany, after informed consent.
PBMCs and isolated CD8+ lymphocytes were incubated in T-cell medium (TCM) until use consisting of RPMI-Glutamax (Invitrogen, Karlsruhe, Germany) supplemented with 10% heat inactivated human AB serum (PAN-Biotech, Aidenbach, Germany), 100 U/ml Penicillin/100 μg/ml Streptomycin (Cambrex, Cologne, Germany), 1 mM sodium pyruvate (CC Pro, Oberdorla, Germany), 20 μg/ml Gentamycin (Cambrex). 2.5 ng/ml IL-7 (PromoCell, Heidelberg, Germany) and 10 U/ml IL-2 (Novartis Pharma, Nurnberg, Germany) were also added to the TCM at this step.
Generation of pMHC/anti-CD28 coated beads, T-cell stimulations and readout was performed in a highly defined in vitro system using four different pMHC molecules per stimulation condition and 8 different pMHC molecules per readout condition.
The purified co-stimulatory mouse IgG2a anti human CD28 Ab 9.3 (Jung et al., 1987) was chemically biotinylated using Sulfo-N-hydroxysuccinimidobiotin as recommended by the manufacturer (Perbio, Bonn, Germany). Beads used were 5.6 μm diameter streptavidin coated polystyrene particles (Bangs Laboratories, Illinois, USA).
800.000 beads/200 μl were coated in 96-well plates in the presence of 4×12.5 ng different biotin-pMHC, washed and 600 ng biotin anti-CD28 were added subsequently in a volume of 200 μl. Stimulations were initiated in 96-well plates by co-incubating 1×10^6 CD8+ T cells with 2×10^5 washed coated beads in 200 μl TCM supplemented with 5 ng/ml IL-12 (PromoCell) for 3 days at 37° C. Half of the medium was then exchanged by fresh TCM supplemented with 80 U/ml IL-2 and incubating was continued for 4 days at 37° C. This stimulation cycle was performed for a total of three times. For the pMHC multimer readout using 8 different pMHC molecules per condition, a two-dimensional combinatorial coding approach was used as previously described (Andersen et al., 2012) with minor modifications encompassing coupling to 5 different fluorochromes. Finally, multimeric analyses were performed by staining the cells with Live/dead near IR dye (Invitrogen, Karlsruhe, Germany), CD8-FITC antibody clone SK1 (BD, Heidelberg, Germany) and fluorescent pMHC multimers. For analysis, a BD LSRII SORP cytometer equipped with appropriate lasers and filters was used. Peptide specific cells were calculated as percentage of total CD8+ cells. Evaluation of multimeric analysis was done using the FlowJo software (Tree Star, Oregon, USA). In vitro priming of specific multimer+CD8+ lymphocytes was detected by comparing to negative control stimulations.

Consider “74 (SLDLRPLEV; listed as Homo sapiens) [compound 74]”, for which, in the experiment with HLA-A*02:01, the “Peptide exchange (MHC class I binding score, peptide exchange yield)” value (from here on “Peptide exchange”) was ““++++” (≥75% = ++++)”. The “Wells positive [%]” value in the experiment with CD8+ T cells is reported as ““++” (20% - 49% = ++)”.

With “253 (YSDDDVPSV; listed as Homo sapiens) [compound 253]”, the “Peptide exchange” value in the experiment with HLA-A*02:01 is given as ““++++” (≥75% = ++++)”. In the experiment with CD8+ T cells, the “Wells positive [%]” value is ““+++” (50% - 69% = +++)”.

Turning to “254 (FLYSETWNI; listed as Homo sapiens) [compound 254]”, the “Peptide exchange” value in the experiment with HLA-A*02:01 was ““++++” (≥75% = ++++)”. For the same substance, the “Wells positive [%]” value in the experiment on CD8+ T cells is recorded as ““+” (<20% = +)”.

Take “256 (ALQETPPQV; listed as Homo sapiens) [compound 256]”: the “Peptide exchange” value with HLA-A*02:01 is listed as ““+++” (≥50 = +++)”. The “Wells positive [%]” value in the experiment on CD8+ T cells was ““+” (<20% = +)”.

On to “258 (RIYPFLLMV; listed as Homo sapiens) [compound 258]”, for which the “Peptide exchange” value with HLA-A*02:01 is recorded as ““+++” (≥50 = +++)”. The “Wells positive [%]” value in the experiment with CD8+ T cells is on record as ““++++” (≥70% = ++++)”.

Regarding “260 (RLDEAFDFV; listed as Homo sapiens) [compound 260]”, the “Peptide exchange” value with HLA-A*02:01 was ““++++” (≥75% = ++++)”. Further, the “Wells positive [%]” value with CD8+ T cells was ““+” (<20% = +)”.

On to “261 (FLPETRIMTSV; listed as Homo sapiens) [compound 261]”, for which the “Peptide exchange” value with HLA-A*02:01 was ““++++” (≥75% = ++++)”. In addition, the “Wells positive [%]” value with CD8+ T cells is ““+” (<20% = +)”.

Regarding “262 (LMGPVVHEV; listed as Homo sapiens) [compound 262]”, the “Peptide exchange” value with HLA-A*02:01 is listed as ““++++” (≥75% = ++++)”. Further, in the experiment on CD8+ T cells, the “Wells positive [%]” value is given as ““++” (20% - 49% = ++)”.
